Test [1] deals with HSP90. Description: HSP90 level in cortical cultures, immunoblot. It is filed as cell-based, rat. The note with it: 50 μM, 24 hrs. The protocol:
Primary rat neuron cultures were prepared from embryos of pregnant Sprague-Dawley rats (E18). The experimental protocol was approved by the University of British Columbia Animal Care Committee. Briefly, the cortical tissue or ventral midbrain tissue was isolated into ice cold HBSS (Invitrogen, 14170-112) and then digested with 0.25% trypsin-EDTA at 37° C. for 30 min. After washing with warm DMEM (supplemented with 10% FBS) three times, neurons were suspended in neuron culture media and dissociated by trituration using varying sizes of pipettes. Neurons were then centrifuged, and the pellet was re-suspended in culture media, washed twice with culture media, and plated on the poly-D-lysine-coated plates. Neuron culture was maintained in the 37° C. incubator with 95% O2 and 5% CO2. The morning after culturing, 2/3 of the neuron culture media was replaced with fresh neuron culture media. Media was then replaced every 3-4 days. […]
Brain tissues or cultured cells were lysed on ice in the lysis buffer and then the solution was centrifuged at 14,000 rpm for 10 min at 4° C. Next, the supernatant was collected and protein concentrations were determined using a BCA protein assay kit (Thermo Scientific, 23227). […] The band density of each protein was quantified by the Bio-Rad Quantity One software and the relative optical density was analyzed relative to the loading control β-actin on the same membrane.

The target in test [2] is T1, phosphorylated (pS129) α-synuclein (Homo sapiens, UniProt P37840, A53T).
T1 construct: tissue The Jackson Laboratory 004479; host or cells: coronal brain sections (substantia nigra, pons) of M83 mice injected with human α-synuclein PFFs
Description: PFF mouse model of spreading synucleinopathy, pS129 α-synuclein immunostaining. Type of test: in vivo. The note with it: PFF-injected M83 mice, 40 mg/kg i.p. over 20 days, at three months, vs Tat-βsyn group. Here is the method: M83 mice were injected intracerebrally (i.e.) into the right dorsal striatum with either 12.5 μg of α-synuclein pre-formed fibrils (PFFs) or PBS. Starting at 3 days prior to the PFF injection, mice were treated daily for 12 days with either Tat-βsyn or Tat-βsyn-degron peptide (40 mg/kg; i.p.) and once every other day for the subsequent 8 days (20 days in total, FIG. 5a). At the end of three months, coronal brain sections of the M83 mice were prepared and stained with antibodies against serine 129-phosphorylated α-synuclein (pS129syn), a marker of pathogenic synuclein aggregates, and Iba-1, a calcium-binding protein specifically expressed in macrophage and microglia as a marker of neuroinflammation.
PFFs were generated in-house based on the Volpicelli-Daley et al protocol. […] PFFs were characterized using a negative staining protocol and analyzed using an electron microscope. […] PFFs were visualized using a transmission electron microscope (FEI Tecnai 12 Bio Twin 120 kV TEM) coupled to a AMT XR80C CCD camera, and analyzed with ImageJ 1.5 and Matlab 2017b software. […]
Brains from M83 mice that received i.e. and i.p. injections were processed for immunohistochemistry. […] Coronal sections were analyzed using Fiji-ImageJ 1.5 software to detect the total area labeled with the peroxidase immunoreaction product. The results were analyzed using GraphPad Prism software.

Consider “YGRKKRRQRRRRTKSGVYLVGRRRG (The sequence is synthesized (YGRKKRRQRRRRTKSGVYLVGRRRG)) [Tat-βsyn-degron]”, for which the “expression level of HSP90” value in test [1] is recorded as “did not affect the expression levels”. Also, in test [2], the “pS129syn staining in pons” value is listed as “significantly reduced” and the “pS129syn staining in substantia nigra pars compacta” value is given as “significantly reduced”.

(Values after patent US20260027179A1, “ANTI-SYNUCLEINOPATHY PEPTIDE AND METHODS TO TREAT NEURODEGENERATIVE DISEASES” (University of British Columbia, priority 2021, published 2026).)
